Results from article PMC4995099, “Drosophila Nanos acts as a molecular clamp that modulates the RNA-binding and repression activities of Pumilio”.
Values belong to the molecule of their own block, whether it stands above or below them.

What was measured:
[1] = biological target: T1, Drosophila Pum RNA-binding domain (amino acids 1091–1426), crystallisation construct (Drosophila melanogaster) (UniProt P25822)
T1 sequence: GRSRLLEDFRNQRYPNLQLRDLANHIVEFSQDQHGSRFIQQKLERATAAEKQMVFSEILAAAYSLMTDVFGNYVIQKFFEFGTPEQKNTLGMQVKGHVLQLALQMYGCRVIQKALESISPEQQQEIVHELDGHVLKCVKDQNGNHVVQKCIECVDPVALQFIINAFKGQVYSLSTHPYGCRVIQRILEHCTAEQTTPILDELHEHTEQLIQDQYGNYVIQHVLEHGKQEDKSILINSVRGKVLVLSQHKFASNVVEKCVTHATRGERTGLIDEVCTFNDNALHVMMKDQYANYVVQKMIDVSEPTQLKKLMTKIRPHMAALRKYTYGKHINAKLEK

[2] = biological target: T2, Pum PUM-HD WT (EMSA) (UniProt P25822 1091-1426); experiment: EMSA; no stable complex, Pum up to 1 uM; EMSA: 50 mM Tris-HCl pH 7.6, 150 mM NaCl, 2 mM DTT, 2 ug/mL BSA, 0.01% Igepal CA-630, 0.02% bromophenol blue, 20% glycerol, 3 h at 4 C; 1 nM Cy5 RNA or 0.3 nM 32P RNA; details: protein: recombinant; tags: N-terminal 3xFLAG; Halo-tag removed by TEV; label: 5' 32P
T2 sequence: T1 sequence

[3] = biological target: T3, Pum PUM-HD WT (EMSA);Nos ZC WT (EMSA) (Drosophila melanogaster?;Drosophila …, UniProt P25822;P25724 1091-1426;289-401, |); experiment: EMSA; Pum titrated, 1 uM Nos ZC constant; EMSA: 50 mM Tris-HCl pH 7.6, 150 mM NaCl, 2 mM DTT, 2 ug/mL BSA, 0.01% Igepal CA-630, 0.02% bromophenol blue, 20% glycerol, 3 h at 4 C; 1 nM Cy5 RNA or 0.3 nM 32P RNA; details: protein: recombinant;recombinant, tags: N-terminal 3xFLAG, Halo-tag removed by TEV;C-terminal V5, copies: 1;1, label: 5' 32P
T3 sequence 1: T1 sequence
T3 sequence 2: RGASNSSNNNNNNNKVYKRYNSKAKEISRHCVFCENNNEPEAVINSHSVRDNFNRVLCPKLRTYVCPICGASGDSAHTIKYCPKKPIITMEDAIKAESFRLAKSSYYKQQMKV

[4] = biological target: T4, Pum RNA-binding domain (aa1091-1426) with N-terminal triple FLAG tag, EMSA construct (Drosophila melanogaster, UniProt P25822-1 1091-1426); experiment: EMSA, Nos binding to Pum–hb NRE2 RNA complex (100 nM Pum)
T4 chain: T1 sequence

[5] = biological target: T2, Pum PUM-HD WT (EMSA); experiment: EMSA; no stable binary complex; EMSA: 50 mM Tris-HCl pH 7.6, 150 mM NaCl, 2 mM DTT, 2 ug/mL BSA, 0.01% Igepal CA-630, 0.02% bromophenol blue, 20% glycerol, 3 h at 4 C; 1 nM Cy5 RNA or 0.3 nM 32P RNA; details: protein: recombinant; tags: N-terminal 3xFLAG; Halo-tag removed by TEV; label: 5' 32P
[6] = biological target: T3, Pum PUM-HD WT (EMSA);Nos ZC WT (EMSA); experiment: EMSA; 1 uM Nos ZC; Kd only in figure; EMSA: 50 mM Tris-HCl pH 7.6, 150 mM NaCl, 2 mM DTT, 2 ug/mL BSA, 0.01% Igepal CA-630, 0.02% bromophenol blue, 20% glycerol, 3 h at 4 C; 1 nM Cy5 RNA or 0.3 nM 32P RNA; details: protein: recombinant;recombinant, tags: N-terminal 3xFLAG, Halo-tag removed by TEV;C-terminal V5, copies: 1;1, label: 5' 32P
[7] = biological target: T2, Pum PUM-HD WT (EMSA); experiment: EMSA; no stable binding; EMSA: 50 mM Tris-HCl pH 7.6, 150 mM NaCl, 2 mM DTT, 2 ug/mL BSA, 0.01% Igepal CA-630, 0.02% bromophenol blue, 20% glycerol, 3 h at 4 C; 1 nM Cy5 RNA or 0.3 nM 32P RNA; details: protein: recombinant; tags: N-terminal 3xFLAG; Halo-tag removed by TEV; label: 5' 32P
[8] = biological target: T2, Pum PUM-HD WT (EMSA); experiment: EMSA; EMSA: 50 mM Tris-HCl pH 7.6, 150 mM NaCl, 2 mM DTT, 2 ug/mL BSA, 0.01% Igepal CA-630, 0.02% bromophenol blue, 20% glycerol, 3 h at 4 C; 1 nM Cy5 RNA or 0.3 nM 32P RNA; details: protein: recombinant; tags: N-terminal 3xFLAG; Halo-tag removed by TEV
[9] = biological target: T5, Pum RNA-binding domain (crystal) (UniProt P25822 1091-1426); experiment: X-ray crystallography; 1.14 A; EMSA: 50 mM Tris-HCl pH 7.6, 150 mM NaCl, 2 mM DTT, 2 ug/mL BSA, 0.01% Igepal CA-630, 0.02% bromophenol blue, 20% glycerol, 3 h at 4 C; 1 nM Cy5 RNA or 0.3 nM 32P RNA; details: protein: recombinant; tags: His6-SUMO removed by Ulp1
T5 sequence: T1 sequence

[10] = biological target: T6, Pum RNA-binding domain (crystal);Nos ZF domain (crystal) (Drosophila melanogaster?;Drosophila …, UniProt P25822;P25724 1091-1426;289-401, |); experiment: X-ray crystallography; 4.0 A; Zn2+; EMSA: 50 mM Tris-HCl pH 7.6, 150 mM NaCl, 2 mM DTT, 2 ug/mL BSA, 0.01% Igepal CA-630, 0.02% bromophenol blue, 20% glycerol, 3 h at 4 C; 1 nM Cy5 RNA or 0.3 nM 32P RNA; details: protein: recombinant;recombinant; tags: His6-SUMO removed by Ulp1;His6-SUMO removed by Ulp1; copies: 1;1
T6 sequence 1: T1 sequence
T6 sequence 2: T3 sequence 2

[11] = biological target: T2, Pum PUM-HD WT (EMSA); experiment: EMSA; N/D; EMSA: 50 mM Tris-HCl pH 7.6, 150 mM NaCl, 2 mM DTT, 2 ug/mL BSA, 0.01% Igepal CA-630, 0.02% bromophenol blue, 20% glycerol, 3 h at 4 C; 1 nM Cy5 RNA or 0.3 nM 32P RNA; details: protein: recombinant; tags: N-terminal 3xFLAG; Halo-tag removed by TEV; label: 5' 32P
[12] = biological target: T3, Pum PUM-HD WT (EMSA);Nos ZC WT (EMSA); experiment: EMSA; 1 uM Nos ZC; N/D; EMSA: 50 mM Tris-HCl pH 7.6, 150 mM NaCl, 2 mM DTT, 2 ug/mL BSA, 0.01% Igepal CA-630, 0.02% bromophenol blue, 20% glycerol, 3 h at 4 C; 1 nM Cy5 RNA or 0.3 nM 32P RNA; details: protein: recombinant;recombinant, tags: N-terminal 3xFLAG, Halo-tag removed by TEV;C-terminal V5, copies: 1;1, label: 5' 32P

percent repression of the RnLuc WT hb 3´UTR reporter in D.mel-2 cells (endogenous Pum), against Halo-tag alone [1]: 60%
Molecule: Halo-Nos I382A (full-length) (natural protein)

percent repression of the RnLuc WT hb 3´UTR reporter in D.mel-2 cells (endogenous Pum), against Halo-tag alone [1]: 29%
Molecule: Halo-Nos M378A (full-length) (natural protein)

percent repression of the RnLuc WT hb 3´UTR reporter in D.mel-2 cells (endogenous Pum), against Halo-tag alone [1]: 46%
Molecule: Halo-Nos I376A (full-length) (natural protein)

percent repression of the RnLuc WT hb 3´UTR reporter in D.mel-2 cells (endogenous Pum), against Halo-tag alone [1]: 14%
Molecule: Halo-Nos NZ (aa1-373) (domain or fragment)

percent repression of the RnLuc WT hb 3´UTR reporter in D.mel-2 cells (endogenous Pum), against Halo-tag alone [1]: 43%
B1: Halo-Nos Δ383–393 (aa1-382 + 394–401) (natural protein)
chain: MFRSNLEGSGAAADNFSAFHARGGLNILGLQDMYLDTSGANSSATLSPPITPVTPDPSTSAQSTHFPFLADSAATANSLLMQRQYHYHLLLQQQQQLAMAQHQLALAASAAAASASHQQTDEIARSLKIFAQVTTGAAENAAGSMQDVMQEFATNGYASDDLGRMSYGSAPPQVQMPPQQQHQQQQGLHLPLGRNPAQLQTNGGNLMPIPLATHWLNNYREHLNNVWRNMSYIPAAPNTMGLQAQTAATVSTNLGVGMGLGLPVQGEQLRGASNSSNNNNNNNKVYKRYNSKAKEISRHCVFCENNNEPEAVINSHSVRDNFNRVLCPKLRTYVCPICGASGDSAHTIKYCPKKPIITMEDAIYYKQQMKV

Molecule: UAUUUGUAAUUUAUAUC (ssRNA) [CycB NRE RNA (EMSA)]
binding result [2]: no binding | Kd [3]: 12 nM

Kd [4]: 4.6 nM
B2: Nos ZC (aa289-401) with C-terminal V5 epitope, EMSA construct (domain or fragment)
chain: T3 sequence 2
modifications: two Zn2+ bound by the CCHC zinc fingers; C-terminal V5 epitope omitted

Molecule: UGAUUGUAGAUAUCUA (ssRNA) [bcd NRE RNA]
binding result [5]: no binding | binding result [6]: binds

Molecule: AAAUUGGACAUAAGCC (ssRNA) [hb NRE2 +3G RNA]
binding result [7]: no binding | Kd [3]: 59.9 nM

Molecule: AAACUGUACAUAAGCC (ssRNA) [hb NRE2 -1C RNA]
binding result [8]: binds

Molecule: AACUUGUACAUAAGCC (ssRNA) [hb NRE2 -2C RNA]
binding result [8]: binds

Molecule: UGUACAUA (ssRNA) [hb PRE2 RNA 8-nt]
binding result [9]: binds

percent repression of the RnLuc WT hb 3´UTR reporter in D.mel-2 cells (endogenous Pum), against Halo-tag alone [1]: 70%
B3: Halo-tagged, full-length Nos protein (NZC) (natural protein)
chain: MFRSNLEGSGAAADNFSAFHARGGLNILGLQDMYLDTSGANSSATLSPPITPVTPDPSTSAQSTHFPFLADSAATANSLLMQRQYHYHLLLQQQQQLAMAQHQLALAASAAAASASHQQTDEIARSLKIFAQVTTGAAENAAGSMQDVMQEFATNGYASDDLGRMSYGSAPPQVQMPPQQQHQQQQGLHLPLGRNPAQLQTNGGNLMPIPLATHWLNNYREHLNNVWRNMSYIPAAPNTMGLQAQTAATVSTNLGVGMGLGLPVQGEQLRGASNSSNNNNNNNKVYKRYNSKAKEISRHCVFCENNNEPEAVINSHSVRDNFNRVLCPKLRTYVCPICGASGDSAHTIKYCPKKPIITMEDAIKAESFRLAKSSYYKQQMKV

Molecule: UAUUUGUAAUUUAU (ssRNA) [CycB NRE RNA 14-nt (crystal)]
binding result [10]: binds

percent repression of the RnLuc WT hb 3´UTR reporter in D.mel-2 cells (endogenous Pum), against Halo-tag alone [1]: 27%
B4: Halo-Nos Δ376–382 (aa1-375 + 383–401) (natural protein)
chain: MFRSNLEGSGAAADNFSAFHARGGLNILGLQDMYLDTSGANSSATLSPPITPVTPDPSTSAQSTHFPFLADSAATANSLLMQRQYHYHLLLQQQQQLAMAQHQLALAASAAAASASHQQTDEIARSLKIFAQVTTGAAENAAGSMQDVMQEFATNGYASDDLGRMSYGSAPPQVQMPPQQQHQQQQGLHLPLGRNPAQLQTNGGNLMPIPLATHWLNNYREHLNNVWRNMSYIPAAPNTMGLQAQTAATVSTNLGVGMGLGLPVQGEQLRGASNSSNNNNNNNKVYKRYNSKAKEISRHCVFCENNNEPEAVINSHSVRDNFNRVLCPKLRTYVCPICGASGDSAHTIKYCPKKPIKAESFRLAKSSYYKQQMKV

Molecule: GAAUUGUAUAUAUUCG (ssRNA) [hb NRE1 RNA]
binding result [5]: no binding | binding result [6]: binds

Molecule: AAAUACAACAUAAGCC (ssRNA) [hb NRE2 ACA RNA]
binding result [11]: no binding | binding result [12]: no binding
